Assay results taken from the supplement of paper PMC10126150.
± gives the standard deviation of the averaged measurements.

Test system: ATP
Assay: switch fluorescence ratio, 500 uM ATP over buffer (Cy3 cluster intensity, sum of 5 cycles each) (fold (ratio)); higher = stronger signal-on switching upon ATP binding; sequences stand for … in TCGTCGGCAGCGTCAGATGTGTATAAGAGACAGTTTTTTTTTTTTTTTTTTTTTTTTT…TC
Conditions: aptamer strand: ATP DNA aptamer (quencher-CACCTGGGGGAGTATTGCGGAGGAAGG + anchor), 100 nM annealed; ATP concentration: 500 uM
In short: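 Between each of five buffer/ATP cycles, the flow-cell was stripped with NaOH and re-annealed. Each cycle imaged Cy3-labelled switching-strand clusters, annealed to 100 nM quencher-labelled ATP aptamer on a modified Illumina MiSeq flow-cell, first in selection buffer and then after 15 min with 500 uM ATP at 22 °C. The fluorescence ratio is summed target-cycle over summed buffer-cycle Cy3 intensity per cluster, averaged per switch-domain sequence, with clusters outside 100-1000 RFU excluded.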
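Further: ATP exposure 15 min at 22 °C before imaging.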

Sequence | switch fluorescence ratio
CATACAATGC | 2.02 ± 0.11
TGACGACCGC | 3.33 ± 0.48
ATATATGTCG | 1.07 ± 0.049
CATTTGGGGT | 0.989 ± 0.017
ATTTCGTCGA | 0.991 ± 0.019
TGTATAATGT | 0.985 ± 0.029
TAGGTAGGGT | 1.04 ± 0.073
AGGGTCAGGT | 1 ± 0.013
TTGAACCCGA | 1.01 ± 0.023
CTAATCCACT | 1.028 ± 0.004
GACTAGACGG | 1.13 ± 0.041
CAAGTGGGGG | 1.02 ± 0.038
AAATTGGCTT | 0.97 ± 0.044
CAGGCGGTTT | 0.969 ± 0.029
GGTGTTAGGT | 0.9925 ± 0.0029
ATATAGAATA | 1.03 ± 0.024
AAGGCAAATA | 1.04 ± 0.037
AATAAATCAT | 0.992 ± 0.024
TAGGTTCCGG | 0.993 ± 0.034
CGGAGTTGGG | 0.9863 ± 0.0044
CTTGCTGCTG | 0.972 ± 0.044
GCAATGGGTG | 1.35 ± 0.027
TTGCATTTTG | 0.985 ± 0.025
CCAGTTTTTC | 1.01 ± 0.019
TTTGGAGATG | 1.02 ± 0.023

Sequence | switch fluorescence ratio
ATCGGAGGGG | 0.957 ± 0.015
GCTATGAGAC | 1.03 ± 0.055
TTTCTAATAT | 1 ± 0.014
TAGGTGGGGG | 1.01 ± 0.039
AGTGGGAGAG | 1.02 ± 0.06
TCGTGCATGG | 1.046 ± 0.008
CAAGGGAATG | 1 ± 0.022
CTACGCCTGG | 1.66 ± 0.044
CGGTTTGACT | 0.9563 ± 0.0063
GGGGACACAG | 0.979 ± 0.015
TAGAGGGGGT | 0.998 ± 0.039
GGCGGATCAG | 0.9827 ± 0.0023
CCGGGGATTG | 1.01 ± 0.027
TTCGGGGAT | 0.982 ± 0.032
GTAATCATCG | 0.9847 ± 0.0073
GGTGTTCAGG | 1.042 ± 0.0083
TGATGGAGAG | 0.97 ± 0.034
GCCATCGGGG | 1.03 ± 0.012
TGCTGGGGTT | 0.9764 ± 0.0047
GGTGACAAAT | 0.9777 ± 0.003
TGATTGGGGA | 1.005 ± 0.0043
GCGGGGTATC | 1.09 ± 0.18
CGTGTTCGCT | 0.9921 ± 0.0016
GGGCACATCC | 1.02 ± 0.025
CCTGGATGTA | 1.02 ± 0.025

Sequence | switch fluorescence ratio
TGTTAAAGCG | 1.06 ± 0.049
ATATGTGGTA | 1.01 ± 0.031
GGGCTGGGGT | 0.997 ± 0.038
TTTTAGGAT | 1.004 ± 0.0021
TTTGTTAGTG | 0.972 ± 0.021
AACCGTCACA | 1.202 ± 0.0059
GGAGATATTT | 1 ± 0.011
TGAAAGGCGT | 0.9862 ± 0.0072
ATTTCTAGAA | 1.02 ± 0.015
ATTTTTGTTA | 0.986 ± 0.054
TTTTGGGCAG | 0.971 ± 0.013
ACGGCAACAT | 1.31 ± 0.1
ATGGTGGTGT | 1.03 ± 0.013
ATAGGGAGTA | 0.979 ± 0.061
AGGGGTTTTG | 0.989 ± 0.022
TCGTAAAGGA | 1.03 ± 0.043
GATTAAAGGG | 1.001 ± 0.0085
GAGTATGTGG | 0.9516 ± 0.0029
ACGTATTCAT | 1.11 ± 0.013
CGGGGACGGT | 0.9631 ± 0.0064
TTTATTTGTT | 1 ± 0.021
ATTTTTGTGG | 0.974 ± 0.011
CCAGTTTACT | 1.01 ± 0.042
TAGGTGGGGT | 0.971 ± 0.016
CCTTGCAGAT | 1.99 ± 0.78

Sequence | switch fluorescence ratio
AATTGTAGTA | 0.996 ± 0.051
TAACGGGAGG | 0.998 ± 0.017
CCGGGGAGGA | 1.06 ± 0.026
AGATTTTGTT | 0.975 ± 0.017
CACGGGGGGG | 1.02 ± 0.025
GATGTTTGGA | 1.014 ± 0.0049
TCTCACATCG | 1.01 ± 0.024
TTCTAGTCGT | 0.971 ± 0.019
ATCCAGGTTG | 1.68 ± 0.11
ATAATTGGGA | 0.99 ± 0.041
GTGTATGGGA | 0.967 ± 0.033
TTTGGGGTTA | 0.996 ± 0.034
CTTTTATTTA | 0.99186 ± 0.00094
TAGAGGTGGG | 1.21 ± 0.34
GCGGGATGGC | 1.007 ± 0.0087
TAATGGGGTT | 1 ± 0.024
CGGATGGAGT | 0.99128 ± 1.1e-05
AATTTTTGTT | 1 ± 0.029
TAAGGATGTT | 0.974 ± 0.026
AAAGGGTTGC | 0.999 ± 0.041
CATGTGGCGG | 0.995 ± 0.0016
AAGGCAAGGG | 1.01 ± 0.028
TATAAGAGTG | 1.03 ± 0.032
GATCTGGCTT | 0.976 ± 0.031
TTATTTGAAT | 1.011 ± 0.0027

Sequence | switch fluorescence ratio
TTCTTGAGTA | 0.984 ± 0.019
CCGGGGAGGG | 1.08 ± 0.053
CAGTGTACGG | 1.04 ± 0.013
ATACATATTT | 1.035 ± 0.0075
GATATAGTGC | 1.01 ± 0.05
CTCGACAGGG | 0.991 ± 0.019
CCCGGGGCTG | 1.024 ± 0.0073
TAAAGTAATT | 0.991 ± 0.039
CAATGGGGGA | 1.007 ± 0.0018
GGTAGTTTTC | 0.9916 ± 0.0039
TTGGGTAAGA | 1.02 ± 0.028
TGCCCCACGT | 1.17 ± 0.16
ATGCTAAGTG | 0.96412 ± 8.8e-05
CTAGTTAAGG | 1.011 ± 0.0048
ATTTCAAGTT | 0.966 ± 0.011
TCATTGGGGA | 1.032 ± 0.0071
GCTTTTGGCG | 1.02 ± 0.021
CACGGGGAAG | 1.02 ± 0.047
ACTGCTGTTT | 0.9834 ± 0.0026
GTCCGGGTGG | 1.05 ± 0.1
CCTGCAGAGC | 1.28 ± 0.058
GGGAAAGCG | 1.04 ± 0.036
GGCGATGCGC | 1.03 ± 0.018
GCAATAATCG | 1.98 ± 1.4
TATAAGGGTT | 1.01 ± 0.017

Sequence | switch fluorescence ratio
CCGAGGAGAG | 1.1 ± 0.037
TTGGGGCCGA | 0.956 ± 0.017
GGATGAGCGA | 1.18 ± 0.19
CATAGATGGA | 1.03 ± 0.036
AGGAAGACAA | 1.03 ± 0.028
GGCCCGTTAC | 1.63 ± 0.2
TCATAAGGCG | 0.986 ± 0.046
GTGAAGAGGG | 0.9977 ± 0.0056
ACTGTGTTTG | 0.991 ± 0.036
GGATGGGTAA | 1.01 ± 0.039
GCGGCTGGTT | 0.981 ± 0.05
CTTATTGAGC | 1.01 ± 0.012
TGGGGGAGCC | 1.03 ± 0.041
GTGGACGGGG | 0.983 ± 0.033
CAAAAGTCTT | 1.02 ± 0.037
TTGGGCTTAT | 1.001 ± 0.0066
CGTGTGGGGG | 1.02 ± 0.031
GGTCTAGAGT | 1 ± 0.014
GCGATTGATG | 1.02 ± 0.026
AGATGTGTCT | 1.02 ± 0.003
TATCTGGGGC | 1.04 ± 0.025
CGGGATTGGG | 0.96 ± 0.061
GTTTTTTACG | 0.998 ± 0.012
AGATTTGTTG | 0.978 ± 0.034
TAAGTATAGT | 1.0211 ± 0.00015

Sequence | switch fluorescence ratio
CGTGGCAGCA | 1.0326 ± 3.9e-05
AAGTAGGGGC | 1.02 ± 0.015
AGGCGGGACA | 1.025 ± 0.0082
AGTGCACGTG | 1 ± 0.061
GCCCTAAGGC | 0.979 ± 0.054
GTGGGTTACT | 1.02 ± 0.021
TGGTAATGTG | 1.01 ± 0.096
TTATCGGACG | 0.969 ± 0.084
CCGGGAGAAA | 1.28 ± 0.02
TTAAACCCGC | 1.08 ± 0.019
GCGGGGAACA | 1 ± 0.017
AAGATCTGCC | 1.04 ± 0.021
TCTGAGGGGA | 1.02 ± 0.055
GTGCGATGTA | 1.02 ± 0.031
ATACGTTATT | 1.21 ± 0.057
GATAATTATG | 0.98 ± 0.019
GATTGTAATA | 1.01 ± 0.034
TAGAAGGTGG | 1.04 ± 0.073
CGAGGGACTG | 0.984 ± 0.0099
GGTTTAAAAT | 0.9581 ± 0.0094
AACCGCGTTG | 1.06 ± 0.012
TTTTCATTAG | 1.03 ± 0.026
CGGTTAGACT | 0.975 ± 0.05
TAACAGGGAG | 1.012 ± 0.01
CTTCTCTATC | 1.01 ± 0.027

Sequence | switch fluorescence ratio
TTACTACGGC | 1.09 ± 0.021
AAAAGACGTT | 1 ± 0.029
GGGGTAGTGG | 0.981 ± 0.05
TCAGTTTGGA | 1.01 ± 0.018
TTGGAGGCCC | 0.9801 ± 0.0029
TACTACGTAA | 2.27 ± 0.4
TTCTTACGTC | 1 ± 0.011
AATACCGTTT | 1.05 ± 0.03
TTACACATCA | 1.083 ± 0.0047
AGTGATTGCA | 1.007 ± 0.004
TACACTTTGC | 1.027 ± 0.0079
GGAGGTAGTC | 0.99 ± 0.033
TAAGTTGGCT | 0.958 ± 0.023
TTCCTTTAGG | 0.98 ± 0.06
TCTGGGCCTT | 0.999 ± 0.023
ATAAAATTA | 1.011 ± 0.01
GCGGACAGTT | 0.9675 ± 0.0086
TATGACATGG | 0.959 ± 0.011
TAGAAACGCG | 0.983 ± 0.025
CGCGGCTATT | 1.07 ± 0.034
AAAGGCCGTC | 1.04 ± 0.012
AAGGCGGGG | 0.991 ± 0.011
CTTGTTAGTA | 0.987 ± 0.027
TTACTATATG | 1.03 ± 0.018
GGTATTGGTT | 0.987 ± 0.048
